This is an account of results in article PMC9253770, “The C-Terminal Domain of Y-Box Binding Protein 1 Exhibits Structure-Specific Binding to Poly(ADP-Ribose), Which Regulates PARP1 Activity”.

This data set addresses YB-1 (Δ1-2) (UniProt P67809 1-230). In words: fluorescence anisotropy; DNA binding similar to full-length; EC50 within 1100-3100 nM, exact value only in figure; 50 mM Tris-HCl pH 8.0, 40 mM NaCl, 1 mM DTT, 100 ug/ml BSA, 50 nM FAM-DNA, 25 C (anisotropy). PAR EMSA rows left out: PAR is a heterogeneous polymer without a defined nucleic acid sequence. Particulars: protein: recombinant; label: 5'-FAM on strand 1; nicked 32-bp duplex, blunt ends; nick opposite strand 1 positions 15/16. On the technique in general: In fluorescence polarisation assays a small probe gives low polarisation when free and higher when bound to something large.

Chain of YB-1 (Δ1-2) (P67809 1-230, stated change not applied): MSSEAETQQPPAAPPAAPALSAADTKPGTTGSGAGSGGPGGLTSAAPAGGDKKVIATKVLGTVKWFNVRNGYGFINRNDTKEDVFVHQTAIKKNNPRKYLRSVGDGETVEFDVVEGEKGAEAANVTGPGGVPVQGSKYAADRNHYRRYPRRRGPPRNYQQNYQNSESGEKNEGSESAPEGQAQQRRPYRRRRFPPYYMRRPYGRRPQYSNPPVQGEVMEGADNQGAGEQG

B1: Nick (FAM-labeled nicked DNA duplex) (dsDNA)
DNA 1: CCGCTATTTCAACCCTTTGCAGTCCCAGAAGG
DNA 2: GGGTTGAAATAGCGG
DNA 3: CCTTCTGGGACTGCAAA
modifications: phosphate on the 17-mer (printed as 5'-p…)
As to B1, the binding result is on record as “binds”.
